# Measurements reported in the domain aggregation screens of Martell et al. (2025).
# Assay: soluble fraction after stress (log2 fold change); higher = more stays soluble; pooled small domains, quantitative proteomics
# Conditions: stress: pH 4
# Procedure, shortened: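 Custom libraries of small protein domains were pooled and measured with high-throughput quantitative proteomics after pH 4 stress. The read-out is the fold change in the amount of each domain that stays soluble after the acid stress, taken as a measure of aggregation propensity. Fold changes are on a log2 scale, and higher values mean more of the domain stayed soluble.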
row,Sequence,soluble fraction (log2)
1,HMQRLSRREIEVLHWIAEGKSDWQIGQILSISAKTVNYHTENLKRKFGVATRMQAVVSAIKQGAFVPGE,-1.31
2,HMQRVSDKVAAQLRVLVQEQQLKPGDRLPAERALAVQLGVSRTALREAIAQLASQGLLTARVGGGTYVAEP,0.22
3,HMQRYVVDENLKLDKKDINHIINVMRLNVNDQIKLINNGTIYDAIITKIEKNNVLYEIIKKEESK,-0.809
4,HMQSANQLIKLSRKRKGLTQQELADQAGVSLRTVQRIEKGTEEISGFSLKQISQILEIPLEQLIM,-0.652
5,HMQSLDGPSRAAIVLMAIGPDVAGELIKSFSPAEAQKVSSLLATVRSLDREVMIEVLDSFKNITEH,-0.5
6,HMQSLPFSFAKRHGVLLKSINHLHGEAVYRIGANPLSLSEVQRYAGVPLKLSSITVEKFDRLLQETYEHD,-0.436
7,HMQSLSDQVFFYLKERIINNEMVPGSIISIEKLTSEFGISNTPVREAIVRLAGLDLVTIHRNKNITVS,-0.707
8,HMQSMSADDWSEKARVLMSAGIIVMGQEAKEKILNLKSLVPLIEAASASNVSMIDSRTFDELLMIIP,-2
9,HMQSREISYSEFVTAVEAGDVRNVTLDGEQVRFRRADGSDYVTIRPEDAEVTKLLMANDIPVRAEP,-0.198
10,HMQSRRTPASLVERVRQLNGQYQDKEIAELLNREGIKTAHGNEFNAKRIEMIRRHNGISKHSAQ,-0.0944
11,HMQSSTAISFNQFQKSWLSNNIKSFQLGEDKMTVRGSLKNGTQYETIVPSERLFQFIGQHPKDGQVQEMY,≥ 0.43
12,HMQSTEQVSVTVTIPPGGELRIDSDTFRVLLNGENVLDKQSGDWLMLSRDLLYLDIESAIGNGLSGNLIYT,-0.143
13,HMQSVEELLDAIGDERLLHILLEADRKTLQIVVLKMMGYAPKEIGSHIGMPEQTVYTKLRRLREKIKKI,-1.07
14,HMQSYHVGDKVTIKNSASHWATGQSIYNGVKGHTYKIIQTNGHKLLLDQVISWINDGDVYKAGS,0.0872
15,HMQSYSTIIGVIELRLSGIGYRTTKARYGIGNSTVTLIMNRFKETGFTLDDLKTMEPTKVEALFYPP,-0.229
16,HMQSYSYYDFQKALQNKTVESVIIEPDKTVPTGTLQIQLKGDTKEELNVSDVTEVEELLQSYDVDYKLRSV,0.0751
17,HMQTASVRFADGQLEVKQKGLQRVSVYSLNGMTVANKAVQGQDYVTISLPRAAYIVKITTQNGSFTKVI,0.218
18,HMQTGRREALEAQLRETGGEAMLARLREIDPEAAARLHPADEKRVIRALEVYEETGKTITQHNLETKAVPP,-0.0698
19,HMQTKEVDYGTFMSMIDEKNIGTVEIGDSQIVFTDKDNKNLYETGVMNDPDLAQRLHDAGATFSS,0.0149
20,HMQTLQTTSLRVSENQLFILDQQALPQEKRWLAADNVALLVDHIHTLRVRGAPLIGLSASLLLALLAGRLT,-0.764
21,HMQTMNKTNISNFEKYLNSGDVSEVIVVRNKSSVRVTLTPEALRSSEHQAVVGKNILGQENIKGPHYQFEV,0.138
22,HMQTPPGRYRHYKGGLYEVIATARHSETLEPMTVYRALYGEQGLWVRPAAMFAEDITLEGVRQPRFARI,-1.27
23,HMQTRIDISDAVLQWVVRKTQFAALPPKAAAHLTKWVRGEKKPTFNQLEEVSKATGIPLGYFFLQQPPHE,-0.561
24,HMQTTEDMEINAKVDEYLREMYLWNDEYKTLNLDHNKGYEDFFYDALGSMTTNTLDKKTYVGSDGKTYYNL,-0.933
25,HMQTYTYYIAKNDISIGQKITPDMLIEKQVNLGDSKDRYLSREQLETGKYIAVRQIPAGELISSASANE,0.0749
26,HMQVAPQVERLLRVMGNETLSLSDIMGRMGLSDKKNFRESYLVPALRSAVIEMTIPDKPNSSLQKYRRIHE,-0.125
27,HMQVEEKNKKIELYIEGKIKELESNLMYVPNENKKKLLMAFMNRNEDIEIIKTKIDTIFNKSVAAYKENM,-0.894
28,HMQVIDNHWRPSRDALDILLRDGISEHFIEDAIPEFILYWRERGTQDSNWNSRFLQHIRLQWARYTNAV,-0.936
29,HMQVPDLYRTLGVGRDATTEAIEAAYVGWQARLSAGEPISTQEWERLRYAHEVLSNPQRRSLYDSLVAET,0.0568
30,HMQVPVNVSMEILDWVIAHIKIDALPNQIREYLNLWVNGEKEPTFNQVEKVSKATGIPLGYFFLQTPPIED,-1.33
